Source: the supplement of paper PMC7877785
± gives the uncertainty stated by the source.

Experiment: self-splicing fitness, log relative to wild type (ln ratio); higher = more splicing; Tetrahymena group I intron in knt gene, E. coli kanamycin selection, DiMSum; sequences stand for … in CUCUCU…GGAGGGAAAAGUUAUCAGGCAUGCACCUGGUAGCUAGUCUUUAAACCAAUAGAUUGCAUCGGUUUAAAAGGCAAGACCGUCAAAUUGCGGGAAAGGGGUCAACAGCCGUUCAGUACCAAGUCUCAGGGGAAACUUUGAGAUGGCCUUGCAAAGGGUAUGGUAAUAAGCUGACGGACAUGGUCCUAACCACGCAGCCAAGUCCUAAGUCAACAGAUCUUCUGUUGAUAUGGAUGCAGUUCACAGACUAAAUGUCGGUCGGGGAAGAUGUAUUCUUCUCAUAAGAUAUAGUCGGACCUCUCCUUAAUGGGAGCUAGCGGAUGAAGUGAUGCAACACUGGAGCCGCUGGGAACUAAUUUGUAUGCGAAAGUAUAUUGAUUAGUUUUGGAGUACUCGUGGUCG
Outline: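 DiMSum derived fitness as the error-weighted combination of fold changes across replicates, kanamycin versus no kanamycin, normalised to wild type. E. coli BL21(DE3) held the library, which randomised all eight P1ex-region intron nucleotides within the knt kanamycin-resistance gene on pET-22b(+). Six replicate transformations grew overnight at 37°C or 30°C on LB agar with or without 25 μg/mL kanamycin, also containing 100 μg/mL carbenicillin, 50 μM IPTG and 0.2% rhamnose, and pooled colonies were amplicon-sequenced on an Illumina HiSeq 2500.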

Sequence	self-splicing fitness (ln) (30 °C)	self-splicing fitness (ln) (37 °C)
AUAGAGCAAUAUUACGAUUG	-3.46 ± 0.2	-1.33 ± 0.15
AUCGAGCAAUAUUACGCUCA	-1.09 ± 0.26	-0.721 ± 0.4
UUGGAGCAAUAUUACGCUUG	-2.69 ± 0.3	-1.25 ± 0.27
CUCCAGCAAUAUUACGGUGC	-2.92 ± 0.17	-2.27 ± 0.24
UAGUAGCAAUAUUACGAGCG	-0.586 ± 0.095	0.438 ± 0.12
GGGAAGCAAUAUUACGCAUG	-1.38 ± 0.16	-0.366 ± 0.2
GGUCAGCAAUAUUACGUCGG	-3.9 ± 0.36	-0.891 ± 0.19
UGGCAGCAAUAUUACGGUUA	-0.000429 ± 0.076	0.0782 ± 0.092
UCCGAGCAAUAUUACGCGAG	–	-1.2 ± 0.24
CGGAAGCAAUAUUACGGACG	-3 ± 0.27	-2.12 ± 0.44
AGACAGCAAUAUUACGAUGG	-3.44 ± 0.16	-2.21 ± 0.16
CCCUAGCAAUAUUACGUUGA	-3.23 ± 0.19	-2.83 ± 0.23
AAUAAGCAAUAUUACGCUAU	-2.74 ± 0.16	-2.24 ± 0.18
ACUUAGCAAUAUUACGUGUC	-3.37 ± 0.16	-2.7 ± 0.25
GGCUAGCAAUAUUACGCAGA	-1.3 ± 0.1	-0.502 ± 0.11
UAGUAGCAAUAUUACGUUGU	-4.09 ± 0.25	-2.13 ± 0.14
GAGUAGCAAUAUUACGGCGG	-4.56 ± 0.36	-2.02 ± 0.21
GUAGAGCAAUAUUACGGAUC	-0.404 ± 0.1	-0.0325 ± 0.14
CCUAAGCAAUAUUACGAGGC	-3.32 ± 0.15	-3.61 ± 0.22
CUUGAGCAAUAUUACGCGGC	-2.63 ± 0.27	-1.43 ± 0.43
UGAGAGCAAUAUUACGUAGU	-2.29 ± 0.24	-2.41 ± 0.36
UCCAAGCAAUAUUACGAGCG	-1.96 ± 0.081	-0.978 ± 0.099
UCCAAGCAAUAUUACGGGUG	-1.63 ± 0.05	-0.583 ± 0.06
AGGUAGCAAUAUUACGUAUG	-3.698 ± 0.027	-2.53 ± 0.038
CUUGAGCAAUAUUACGUGGA	-2.88 ± 0.24	-3.25 ± 0.33

Sequence	self-splicing fitness (ln) (30 °C)	self-splicing fitness (ln) (37 °C)
GCACAGCAAUAUUACGGCGG	-3.29 ± 0.19	-2.78 ± 0.25
UUUUAGCAAUAUUACGAUCG	-0.15 ± 0.26	–
UAUCAGCAAUAUUACGUAUU	-0.834 ± 0.078	-0.815 ± 0.094
UAGUAGCAAUAUUACGCGUC	-3.22 ± 0.38	-1.88 ± 0.36
UGGCAGCAAUAUUACGGCAC	-2.27 ± 0.25	-1.17 ± 0.16
ACCCAGCAAUAUUACGAGUG	-1.74 ± 0.054	-0.755 ± 0.058
GAUAAGCAAUAUUACGUGAG	-2.14 ± 0.096	-0.113 ± 0.099
UAACAGCAAUAUUACGGUUC	-2.65 ± 0.069	-1.28 ± 0.08
UUAUAGCAAUAUUACGGUGA	-0.606 ± 0.12	-0.405 ± 0.14
GAGCAGCAAUAUUACGUACC	-0.46 ± 0.12	-0.225 ± 0.14
UGGAAGCAAUAUUACGAGAA	-2.05 ± 0.43	-1.73 ± 0.3
GGUUAGCAAUAUUACGUUGA	-2 ± 0.2	-1.54 ± 0.17
GGGAAGCAAUAUUACGGAUA	–	-1.38 ± 0.42
CCGUAGCAAUAUUACGCCAG	-1.17 ± 0.16	-0.533 ± 0.22
UGGGAGCAAUAUUACGCAGA	-1.08 ± 0.48	-3 ± 0.35
CUAGAGCAAUAUUACGAAUG	0.298 ± 0.095	0.533 ± 0.11
GCGCAGCAAUAUUACGUAGU	-0.438 ± 0.06	0.18 ± 0.076
GACGAGCAAUAUUACGUUGG	-3.34 ± 0.12	-3.25 ± 0.22
UGGCAGCAAUAUUACGACGA	-0.192 ± 0.12	-0.159 ± 0.14
UCGUAGCAAUAUUACGACAG	–	-1.5 ± 0.29
ACCUAGCAAUAUUACGGUGG	-4 ± 0.16	-3.02 ± 0.15
CAGUAGCAAUAUUACGUAGU	-2.5 ± 0.13	-2.54 ± 0.18
AUUCAGCAAUAUUACGAUCG	-1.87 ± 0.1	-1.5 ± 0.12
CUGAAGCAAUAUUACGGCUC	-2.75 ± 0.16	-2.52 ± 0.25
CUCGAGCAAUAUUACGGCAC	-3.63 ± 0.25	-2.16 ± 0.36

Sequence	self-splicing fitness (ln) (30 °C)	self-splicing fitness (ln) (37 °C)
CCUCAGCAAUAUUACGGACG	-0.587 ± 0.064	0.272 ± 0.081
CGCGAGCAAUAUUACGGCAU	-2.86 ± 0.17	-1.43 ± 0.12
UCACAGCAAUAUUACGUGCU	-3.75 ± 0.19	-2.72 ± 0.15
CGAGAGCAAUAUUACGCACA	-2.47 ± 0.27	–
CUUUAGCAAUAUUACGUUUU	-3.27 ± 0.3	-2.39 ± 0.35
UCUGAGCAAUAUUACGGCAU	-2.79 ± 0.27	–
GGACAGCAAUAUUACGCAAG	-1.69 ± 0.11	-1.41 ± 0.12
UAGUAGCAAUAUUACGCGGA	-3.56 ± 0.47	-0.643 ± 0.17
GUAGAGCAAUAUUACGCACU	-1.24 ± 0.25	0.332 ± 0.23
GGGAAGCAAUAUUACGCCAA	-1.66 ± 0.095	-0.896 ± 0.1
UUGGAGCAAUAUUACGAUGA	-0.635 ± 0.11	-0.543 ± 0.11
CCCAAGCAAUAUUACGUCAC	-3.87 ± 0.2	-2.82 ± 0.15
CCGUAGCAAUAUUACGUAAG	0.191 ± 0.047	0.106 ± 0.062
GUGAAGCAAUAUUACGCUUG	-1.44 ± 0.11	-0.0927 ± 0.098
UAGUAGCAAUAUUACGUCAU	-3.57 ± 0.37	–
AUGGAGCAAUAUUACGAAAU	-1.92 ± 0.23	–
UAAAAGCAAUAUUACGAUGU	-2.44 ± 0.15	-1.33 ± 0.19
AGAUAGCAAUAUUACGUCAU	-1.89 ± 0.097	-0.716 ± 0.096
CGUCAGCAAUAUUACGGAUC	-1.12 ± 0.051	-0.0121 ± 0.069
UUCAAGCAAUAUUACGUCAG	-3.43 ± 0.2	-1.23 ± 0.14
AGGCAGCAAUAUUACGACUC	-1.65 ± 0.14	-1.01 ± 0.19
AGGCAGCAAUAUUACGACCA	-0.404 ± 0.11	0.544 ± 0.17
GGGGAGCAAUAUUACGGCAA	-2.04 ± 0.33	-0.565 ± 0.25
AAGAAGCAAUAUUACGUUUG	-2.45 ± 0.12	-2.26 ± 0.18
CGCAAGCAAUAUUACGGACG	-1.45 ± 0.1	-0.532 ± 0.11

Sequence	self-splicing fitness (ln) (30 °C)	self-splicing fitness (ln) (37 °C)
AUGAAGCAAUAUUACGAGUU	-2.19 ± 0.096	-1.15 ± 0.1
AAAAAGCAAUAUUACGGGAU	-1.62 ± 0.075	-1.23 ± 0.086
UACUAGCAAUAUUACGCUCC	-2.42 ± 0.23	-1.21 ± 0.23
UUACAGCAAUAUUACGAGAU	-2.96 ± 0.25	-1.69 ± 0.24
AAAAAGCAAUAUUACGCCGA	-1.19 ± 0.088	-1.01 ± 0.099
CCGUAGCAAUAUUACGGCGC	-3.01 ± 0.33	-1.48 ± 0.32
GUUUAGCAAUAUUACGGAGC	–	-2.99 ± 0.44
CCUGAGCAAUAUUACGUUAA	-2.92 ± 0.24	-2.52 ± 0.26
UUUUAGCAAUAUUACGACUA	-0.401 ± 0.18	0.109 ± 0.14
UCUCAGCAAUAUUACGUAUA	-2.86 ± 0.17	-1.32 ± 0.13
GCAGAGCAAUAUUACGAAGA	-1.88 ± 0.36	–
ACCCAGCAAUAUUACGUCAC	-3.29 ± 0.14	-2.18 ± 0.15
UGCCAGCAAUAUUACGUGGC	-3.24 ± 0.19	-3.19 ± 0.25
CCCCAGCAAUAUUACGACCC	-0.862 ± 0.32	–
UAGAAGCAAUAUUACGGAUC	-2.24 ± 0.12	-1.49 ± 0.17
ACUUAGCAAUAUUACGACCC	0.555 ± 0.32	–
UAAUAGCAAUAUUACGUCUC	-3.41 ± 0.26	–
AGCAAGCAAUAUUACGUGUG	-2.9 ± 0.1	-1.17 ± 0.081
CAUAAGCAAUAUUACGACGC	-2.7 ± 0.25	-0.823 ± 0.19
CUGUAGCAAUAUUACGCGGG	-3.04 ± 0.24	-2.07 ± 0.31
GAAUAGCAAUAUUACGAAGC	-3.17 ± 0.24	-2.54 ± 0.22
CUAAAGCAAUAUUACGAAAU	-3.55 ± 0.28	-2.01 ± 0.46
CCCGAGCAAUAUUACGUUUG	-4.07 ± 0.23	-2.07 ± 0.14
GGUGAGCAAUAUUACGACAU	-1.27 ± 0.016	-0.567 ± 0.035
